# In IntAct's records for PubMed 20850366:
# B1: Small glutamine-rich tetratricopeptide repeat-containing protein 2 (Saccharomyces cerevisiae), Q12118 (parent)
# chain: MSASKEEIAALIVNYFSSIVEKKEISEDGADSLNVAMDCISEAFGFEREAVSGILGKSEFKGQHLADILNSASRVPESNKKDDAENVEINIPEDDAETKAKAEDLKMQGNKAMANKDYELAINKYTEAIKVLPTNAIYYANRAAAHSSLKEYDQAVKDAESAISIDPSYFRGYSRLGFAKYAQGKPEEALEAYKKVLDIEGDNATEAMKRDYESAKKKVEQSLNLEKTVPEQSRDADVDASQGASAGGLPDLGSLLGGGLGGLMNNPQLMQAAQKMMSNPGAMQNIQKMMQDPSIRQMAEGFASGGGTPNLSDLMNNPALRNMAGNLFGGAGAQSTDETPDNENKQ
# B2: Small glutamine-rich tetratricopeptide repeat-containing protein 2 (Saccharomyces cerevisiae), Q12118 (parent)
# chain: B1 chain
# partner: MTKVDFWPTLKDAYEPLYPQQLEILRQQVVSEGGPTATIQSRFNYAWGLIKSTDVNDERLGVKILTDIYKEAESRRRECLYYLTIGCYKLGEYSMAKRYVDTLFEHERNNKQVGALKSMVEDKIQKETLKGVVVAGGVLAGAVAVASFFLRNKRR
# B3: Mitochondrial fission 1 protein (Saccharomyces cerevisiae), P40515 (parent)
# chain: B2 partner
# partner: B1 chain
# Variants of: B1
# Settings: with sec22_yeast SEC22, P22214
# sec22_yeast SEC22, P22214, sequence (P22214 whole entry): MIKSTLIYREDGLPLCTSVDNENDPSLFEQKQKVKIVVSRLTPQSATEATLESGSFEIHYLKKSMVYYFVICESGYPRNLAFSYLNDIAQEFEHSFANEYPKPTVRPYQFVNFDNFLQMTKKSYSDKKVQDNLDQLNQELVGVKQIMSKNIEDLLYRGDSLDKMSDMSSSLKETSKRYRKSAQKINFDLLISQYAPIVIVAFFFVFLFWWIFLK
row,effect of a mutation on the interaction,Variant
1,with no effect,MSASKEEIAALIVNYFSSIVEKKEISEDGADSLNVAMDCISEAFGFEREAVSGILGKSEFKGQHLADILNSASRVPESNKKDDAENVEINIPEDDAETKAKAEDLKMQGNKAMANKDYELAINKYTEAIKVLPTNAIYYANRAAAHSSLKEYDQAVKDAESAISIDPSYFAGYSALGFAKYAQGKPEEALEAYKKVLDIEGDNATEAMKRDYESAKKKVEQSLNLEKTVPEQSRDADVDASQGASAGGLPDLGSLLGGGLGGLMNNPQLMQAAQKMMSNPGAMQNIQKMMQDPSIRQMAEGFASGGGTPNLSDLMNNPALRNMAGNLFGGAGAQSTDETPDNENKQ [R171A;R175A]

# Variants of: B2
# Settings: with fis1_yeast FIS1, P40515
row,effect of a mutation on the interaction,Variant
1,with no effect,MSASKEEIAALIVNYFSSIVEKKEISEDGADSLNVAMDCISEAFGFEREAVSGILGKSEFKGQHLADILNSASRVPESNKKDDAENVEINIPEDDAETKAKAEDLKMQGNKAMANKDYELAINKYTEAIKVLPTNAIYYANRAAAHSSLKEYDQAVKDAESAISIDPSYFAGYSALGFAKYAQGKPEEALEAYKKVLDIEGDNATEAMKRDYESAKKKVEQSLNLEKTVPEQSRDADVDASQGASAGGLPDLGSLLGGGLGGLMNNPQLMQAAQKMMSNPGAMQNIQKMMQDPSIRQMAEGFASGGGTPNLSDLMNNPALRNMAGNLFGGAGAQSTDETPDNENKQ [R171A;R175A]

# Variants of: B3
# Settings: with sgt2_yeast SGT2, Q12118
row,effect of a mutation on the interaction,Variant
1,increasing interaction strength,MTKVDFWPTLKDAYEPLYPQQLEILRQQVVSEGGPTATIQSRFNYAWGLIKSTDVNDERLGVKILTDIYKEAESRRRECLYYLTIGCYKLGEYSMAKRYVDTLFEHERNNKQVGALKSMVEDKIQKETLKGVVVALLVLALLVAVASFFLRNKRR
